The source of these data is article PMC12931233.

The nature of data set [1]: immunoblot of endogenous CD47, MHCC97-H and HCCLM3. As to conditions: control: matched control (untreated/DMSO, scramble, vector).
Data set [2] is described as follows: cell-surface CD47 by flow cytometry and immunofluorescence. The settings on record: glycan changed form; control: scramble / vector.
Data set [3] in a line: CHX chase, rescued MHCC97-H; half-life. As to conditions: glycan changed form; control: scramble / vector, WT CD47 rescued cells.
Data set [4] in a line: IP and ubiquitin immunoblot. (Immunoblotting shows a protein as a band on a membrane.)
Data set [5] is described as follows: CHX chase immunoblot, 293T; half-life. The settings on record: glycan lost.
Data set [6] can be described thus: CHX chase immunoblot, reconstituted MHCC97-H; half-life. The settings on record: glycan lost; control: WT CD47 reconstituted cells.
Data set [7] in a line: immunoblot, reconstituted MHCC97-H. As to conditions: glycan lost; control: WT CD47 reconstituted cells.
Data set [8] in a line: Transwell co-culture with BMDCs, flow cytometry. As to conditions: glycan lost; control: CD47 WT reconstituted Hepa1-6. For orientation: A flow cytometer gives signals particle by particle.
A short description of data set [9]: ubiquitin immunoblot, reconstituted Hepa1-6. As to conditions: glycan lost; control: WT CD47 reconstituted Hepa1-6.
Data set [10] in a line: Transwell chemotaxis; CCR7 on DCs. As to conditions: glycan lost; control: CD47 WT reconstituted Hepa1-6.

As to CD47: 2F-Fuc, the expression_or_secretion entry in [1] (glycan changed form) is “decreases”. With CD47: FUT8 ablation, the expression_or_secretion result in data set [2] is on record as “decreases”. Consider CD47: FUT8 depletion, for which, in data set [3], the degradation_or_half_life entry is “decreases”. In the case of CD47: FUT8 overexpression, the degradation_or_half_life entry in [3] is “increases”. Further, in [2], the expression_or_secretion result is reported as “increases”.

With CD47: HA-FUT8 WT overexpression, the “other: ubiquitination level” value in data set [4] (glycan changed form, control: untreated / vector) is “decreases”. Consider CD47: HA-FUT8 overexpression, for which the expression_or_secretion entry in data set [1] (glycan changed form) is reported as “increases”.

In the case of CD47: N23Q, the “other: ubiquitination level” value in data set [4] (glycan lost, control: WT CD47) was “no change”. In addition, the degradation_or_half_life entry in data set [5] (control: Flag-CD47 WT) was “no change”. As for CD47: N34Q, the “other: ubiquitination level” value in data set [4] (glycan lost, control: WT CD47) is recorded as “no change”. Further, in [5] (control: Flag-CD47 WT), the degradation_or_half_life result is “no change”. Regarding CD47: N50Q, the “other: ubiquitination level” value in data set [4] (glycan lost, control: WT CD47) is “no change”. Also, the degradation_or_half_life entry in [5] (control: Flag-CD47 WT) was “no change”. As for CD47: N73Q, in data set [4] (glycan lost, control: WT CD47), the “other: ubiquitination level” value is recorded as “no change”. Further, in data set [5] (control: Flag-CD47 WT), the degradation_or_half_life result is on record as “no change”. Turning to CD47: N111A, the degradation_or_half_life entry in data set [6] is “decreases”. Moreover, in [7], the expression_or_secretion entry is listed as “decreases”. Take CD47: N111Q: the “other: ubiquitination level” value in data set [4] (glycan lost, control: WT CD47) is on record as “increases”. In addition, the degradation_or_half_life result in data set [5] (control: Flag-CD47 WT) and in data set [6] was “decreases” in each case. In addition, in data set [7], the expression_or_secretion result is on record as “decreases”.

For CD47: N111T, the degradation_or_half_life result in data set [6] is “decreases”. Further, in data set [7], the expression_or_secretion entry was “decreases”. In the case of CD47: shFUT8, the expression_or_secretion entry in [1] (glycan changed form) was “decreases”. On to CD47: tunicamycin (TM), for which, in data set [4] (glycan lost, control: untreated / vector), the “other: ubiquitination level” value is listed as “increases”. Also, the degradation_or_half_life entry in [5] (control: DMSO) was “decreases”. Further, the expression_or_secretion entry in [1] (glycan lost) is reported as “decreases”.

B1: CD47 (murine): N109Q (protein)
parent chain: MWPLAAALLLGSCCCGSAQLLFSNVNSIEFTSCNETVVIPCIVRNVEAQSTEEMFVKWKLNKSYIFIYDGNKNSTTTDQNFTSAKISVSDLINGIASLKMDKRDAMVGNYTCEVTELSREGKTVIELKNRTVSWFSPNEKILIVIFPILAILLFWGKFGILTLKYKSSHTNKRIILLLVAGLVLTVIVVVGAILLIPGEKPVKNASGLGLIVISTGILILLQYNVFMTAFGMTSFTIAILITQVLGYVLALVGLCLCIMACEPVHGPLLISGLGIIALAELLGLVYMKFVASNQRTIQPPRNR
Regarding B1, the “other: NK cell TNF-α and GZMB expression” value in data set [8] is given as “increases”. In data set [9], the “other: ubiquitination level” value is listed as “increases”. Also, in [10], the “other: CD103+ DC migration and CCR7 expression” value was “increases”.

B2: CD47 (murine): N109T (protein)
parent chain: B1 parent chain
On to B2, for which, in [8], the “other: NK cell TNF-α and GZMB expression” value was “increases”.

B3: CD47 (murine): N109A (protein)
parent chain: B1 parent chain
Turning to B3, in [8], the “other: NK cell TNF-α and GZMB expression” value is listed as “increases”.
